For assay [1], the target named is T1, VEGFR2 (Rattus norvegicus, UniProt O08775).
T1 chain: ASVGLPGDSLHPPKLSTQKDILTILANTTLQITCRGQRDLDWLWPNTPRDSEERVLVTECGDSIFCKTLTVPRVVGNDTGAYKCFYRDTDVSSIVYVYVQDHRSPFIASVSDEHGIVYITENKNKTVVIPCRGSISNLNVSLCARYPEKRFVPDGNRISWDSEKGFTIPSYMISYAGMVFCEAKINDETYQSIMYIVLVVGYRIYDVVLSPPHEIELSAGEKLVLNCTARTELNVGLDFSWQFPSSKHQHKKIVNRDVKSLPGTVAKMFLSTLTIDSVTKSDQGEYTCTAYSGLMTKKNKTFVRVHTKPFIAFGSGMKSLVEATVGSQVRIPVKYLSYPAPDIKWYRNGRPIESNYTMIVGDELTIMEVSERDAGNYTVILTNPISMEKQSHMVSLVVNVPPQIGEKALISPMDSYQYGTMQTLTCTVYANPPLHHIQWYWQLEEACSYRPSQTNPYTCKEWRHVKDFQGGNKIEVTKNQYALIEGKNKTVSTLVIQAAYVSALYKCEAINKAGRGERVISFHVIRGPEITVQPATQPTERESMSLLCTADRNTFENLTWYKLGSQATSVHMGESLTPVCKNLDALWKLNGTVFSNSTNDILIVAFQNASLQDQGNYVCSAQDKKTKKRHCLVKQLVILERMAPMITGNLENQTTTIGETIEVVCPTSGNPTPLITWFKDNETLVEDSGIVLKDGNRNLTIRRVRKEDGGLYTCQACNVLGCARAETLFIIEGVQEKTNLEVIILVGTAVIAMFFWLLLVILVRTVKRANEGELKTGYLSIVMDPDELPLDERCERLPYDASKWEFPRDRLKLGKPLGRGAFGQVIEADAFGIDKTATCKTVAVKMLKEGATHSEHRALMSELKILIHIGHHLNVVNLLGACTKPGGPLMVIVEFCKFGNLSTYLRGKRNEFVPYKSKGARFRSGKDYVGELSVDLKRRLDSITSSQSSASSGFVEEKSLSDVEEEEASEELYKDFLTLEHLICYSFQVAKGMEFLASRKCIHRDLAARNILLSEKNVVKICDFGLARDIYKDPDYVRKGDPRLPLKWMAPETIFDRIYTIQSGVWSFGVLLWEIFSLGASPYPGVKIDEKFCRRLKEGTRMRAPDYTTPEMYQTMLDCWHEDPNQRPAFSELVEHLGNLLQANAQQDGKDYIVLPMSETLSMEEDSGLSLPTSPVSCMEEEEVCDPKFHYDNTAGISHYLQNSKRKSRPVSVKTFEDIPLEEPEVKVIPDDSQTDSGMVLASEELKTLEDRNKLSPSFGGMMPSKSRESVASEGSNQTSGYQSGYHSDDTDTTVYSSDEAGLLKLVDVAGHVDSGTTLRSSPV
Nature of the assay: [125I]-VEGF-A saturation binding to isolated LSECs at 4°C, Scatchard.

Assay [2] concerns the target T2, VEGFR1 (Rattus norvegicus, UniProt P53767).
T2 chain: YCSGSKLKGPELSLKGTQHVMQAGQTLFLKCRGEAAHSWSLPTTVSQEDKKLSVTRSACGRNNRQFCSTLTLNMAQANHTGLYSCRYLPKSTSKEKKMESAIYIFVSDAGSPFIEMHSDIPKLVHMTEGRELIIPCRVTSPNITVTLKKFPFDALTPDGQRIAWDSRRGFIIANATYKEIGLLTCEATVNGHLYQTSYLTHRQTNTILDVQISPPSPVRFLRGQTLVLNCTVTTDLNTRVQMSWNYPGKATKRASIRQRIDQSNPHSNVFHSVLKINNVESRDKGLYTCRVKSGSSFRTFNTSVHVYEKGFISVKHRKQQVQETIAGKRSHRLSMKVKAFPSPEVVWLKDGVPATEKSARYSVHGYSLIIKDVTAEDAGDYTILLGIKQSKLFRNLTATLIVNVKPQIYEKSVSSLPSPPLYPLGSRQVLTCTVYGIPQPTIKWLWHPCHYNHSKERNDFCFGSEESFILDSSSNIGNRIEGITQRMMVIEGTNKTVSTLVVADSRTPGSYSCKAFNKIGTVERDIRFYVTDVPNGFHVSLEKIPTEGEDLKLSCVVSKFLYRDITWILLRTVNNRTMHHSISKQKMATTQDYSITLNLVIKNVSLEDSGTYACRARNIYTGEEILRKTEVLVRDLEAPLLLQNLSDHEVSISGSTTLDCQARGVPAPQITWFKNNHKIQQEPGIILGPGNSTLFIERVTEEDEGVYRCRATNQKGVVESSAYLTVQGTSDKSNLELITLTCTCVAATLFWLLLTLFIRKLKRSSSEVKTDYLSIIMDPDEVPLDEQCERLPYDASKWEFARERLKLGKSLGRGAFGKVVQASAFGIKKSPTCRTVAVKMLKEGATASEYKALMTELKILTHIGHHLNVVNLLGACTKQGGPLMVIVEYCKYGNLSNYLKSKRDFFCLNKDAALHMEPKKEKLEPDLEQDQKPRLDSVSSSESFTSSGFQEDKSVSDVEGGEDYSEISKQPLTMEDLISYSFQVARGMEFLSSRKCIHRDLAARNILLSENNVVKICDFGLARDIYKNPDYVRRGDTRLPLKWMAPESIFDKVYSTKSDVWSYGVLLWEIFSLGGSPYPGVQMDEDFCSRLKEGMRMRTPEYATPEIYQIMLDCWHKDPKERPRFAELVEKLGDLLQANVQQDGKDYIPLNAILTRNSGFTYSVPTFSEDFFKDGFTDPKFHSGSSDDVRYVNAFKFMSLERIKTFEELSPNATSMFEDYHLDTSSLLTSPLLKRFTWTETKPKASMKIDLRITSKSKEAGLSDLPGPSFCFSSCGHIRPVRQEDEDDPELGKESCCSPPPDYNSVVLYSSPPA
The description is as above.

Data on one molecule can be found in article PMC6754870 (2019).

B1: VEGF-A165 (protein)
chain: MTDRQTDTAPSPSYHLLPGRRRTVDAAASRGQGPEPAPGGGVEGVGARGVALKLFVQLLGCSRFGGAVVRAGEAEPSGAARSASSGREEPQPEEGEEEEEKEEERGPQWRLGARKPGSWTGEAAVCADSAPAARAPQALARASGRGGRVARRGAEESGPPHSPSRRGSASRAGPGRASETMNFLLSWVHWSLALLLYLHHAKWSQAAPMAEGGGQNHHEVVKFMDVYQRSYCHPIETLVDIFQEYPDEIEYIFKPSCVPLMRCGGCCNDEGLECVPTEESNITMQIMRIKPHQGQHIGEMSFLQHNKCECRPKKDRARQEKKSVRGKGKGQKRKRKKSRYKSWSVPCGPCSERRKHLFVQDPQTCKCSCKNTDSRCKARQLELNERTCRCDKPRR
modifications: 125I-labeled VEGF-A
With B1, the results for the Kd in assay [1] and in assay [2] were 0.21 nM and 0.008 nM, respectively.

As a reminder, the Kd is a measure of binding affinity in units of concentration. A higher Kd goes with a looser complex.
